A short description of the data set: protein stability index of a GFP-peptide fusion (GPS, HEK-293T) (PSI 1-6); higher = more stable.
Where [1] appears, read: treatment: DMSO, c terminus: a fixed tail appended.
[2] abbreviates: treatment: MLN4924 1 uM, 8 h, c terminus: a fixed tail appended.

± gives the standard deviation.

Results on 72 sequences are retold here after the supplement of paper PMC10567573.
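Further: 24-mer peptide tiles fused after GFP, lentivirally expressed, FACS-sorted into six equal bins by GFP/DsRed ratio, decoded by Illumina sequencing, PSI is the read-weighted mean bin number.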

Regarding ANHVFFLLYLLHILLLDGAAWLTL [FADS1], the protein stability index is, setting by setting: under setting [1], 3.23 ± 0.61; under setting [2], 3.39 ± 0.6.

With YSCPATNECEITKRRRKSCQACRF [ESRRG], the protein stability index was found to be 3.59 ± 0.51 under setting [1] and 4.15 ± 0.29 under setting [2].

For the sequence TPSVPPPASQHSTPAGLPPSRAKP [FBF1], the protein stability index was 5.3 ± 0.25 under setting [1] and 5.22 ± 0.23 under setting [2].

IQGNIEYSCPATNECEITKRRRKS [ESRRG] came in with a protein stability index under setting [1] of 4.85 ± 0.15 and a protein stability index under setting [2] of 5.13 ± 0.25.

Turning to RQLALPATEQAATQESTFQELCEG [NOP53], the protein stability index came to 5.12 ± 0.16 under setting [1] and 5.22 ± 0.21 under setting [2].

Consider RFCLPHLVALAEQHAVQELTKAAT [RHOBTB1], for which the protein stability index by setting is: under setting [1], 2.12 ± 0.18; under setting [2], 2.08 ± 0.15.

IDYYTETKILQERAVLGANDPEKN [NSDHL] had a protein stability index under setting [1] of 4.76 ± 0.22 and a protein stability index under setting [2] of 5.02 ± 0.46.

For the sequence FKLLDKNSSGDIGKKEIKPFKRFL [SMOC2], the protein stability index reads like this: under setting [1], 2.54 ± 0.42; under setting [2], 3.01 ± 0.43.

Consider KTESSGIETEPTVHHLPLSTEKVV [EPB41L3], for which the protein stability index worked out at 5.21 ± 0.14 under setting [1] and 5 ± 0.25 under setting [2].

Consider AKSRAEAALEEESRQRQSRMEKGE [SMARCE1], for which the protein stability index under setting [1] was 5.55 ± 0.22 and the protein stability index under setting [2] is 5.38 ± 0.22.

Turning to VGPAEPTLVNFHLKRSIPQVSPVR [CPN1], the protein stability index by setting is: under setting [1], 3.44 ± 0.17; under setting [2], 3.4 ± 0.32.

TARPFGAPPPADSAPQQNGQPLRP [PDLIM7] had a protein stability index under setting [1] of 4.84 ± 0.52 and a protein stability index under setting [2] of 4.92 ± 0.058.

PGPSWVRGSGPSVLSRLQDAAVVR [ALKBH7] showed a protein stability index under setting [1] of 3.58 ± 0.37 and a protein stability index under setting [2] of 3.78 ± 0.23.

Take TITAPPSRVLQNGGDKLETMPLYL [SCD]: the protein stability index by setting is: under setting [1], 3.5 ± 0.41; under setting [2], 3.43 ± 0.29.

As to PAPSPAKEERKTEVVMNSQQTPVG [PALM], the protein stability index stood at 5.52 ± 0.19 under setting [1] and 5.46 ± 0.13 under setting [2].

In turn, DGYCMFNHVAVAARYAQQKHRIRR [HDAC6] registered a protein stability index under setting [1] of 3.05 ± 0.42 and a protein stability index under setting [2] of 3.53 ± 0.2.

With KSALGAMGQWQLEVGDPAPLGAGN [DPCD], the protein stability index under setting [1] was found to be 3.98 ± 0.21 and the protein stability index under setting [2] came to 3.96 ± 0.27.

Take DSSWYEPSAELVQTRMAVSLTAAE [ZNF232]: the protein stability index is, setting by setting: under setting [1], 4.26 ± 0.068; under setting [2], 4.37 ± 0.29.

Consider SVKKQGETVADVRTLPNASTVDNI [MLH1], for which the protein stability index amounted to 5.12 ± 0.12 under setting [1] and 5.25 ± 0.14 under setting [2].

Regarding EEGDEDDWASNKVMFKIGDLGHVT [WEE1], the protein stability index reads like this: under setting [1], 4.1 ± 0.23; under setting [2], 4.39 ± 0.2.

Regarding LGKLEATIKSLSAELLKANEIIKK [SASS6], the protein stability index was found to be 2.44 ± 0.34 under setting [1] and 2.68 ± 0.16 under setting [2].

Regarding RSLNVASGSGKSGGYGFGRGRASG [KRT71], the protein stability index by setting is: under setting [1], 4.35 ± 0.38; under setting [2], 4.49 ± 0.27.

Regarding RHRIPEPEAAVLFRQMATALAHCH [TRIB3], the protein stability index reads like this: under setting [1], 2.48 ± 0.084; under setting [2], 2.29 ± 0.19.

In the case of IDCKFNAESQGCNHEEDAGVRCNT [LOXL2], the protein stability index amounted to 5.13 ± 0.22 under setting [1] and 5.22 ± 0.1 under setting [2].

In the case of VYLLGNPVVWWLNLLSIALYLLSG [POMT2], the protein stability index by setting is: under setting [1], 3.31 ± 0.95; under setting [2], 2.96 ± 0.56.

MKQLQQQQHSDKTSLQGLTGTPLV [ISL2]: the protein stability index is 4.01 ± 0.35 under setting [1] and 4.2 ± 0.23 under setting [2].

For KRKMHLVFEYCDHTLLNELERNPN [CDKL4], the protein stability index reads like this: under setting [1], 2.26 ± 0.46; under setting [2], 2.51 ± 0.51.

QPASELLQDVRVNQSRCEMKTFVS [TRIM15]: the protein stability index reads like this: under setting [1], 2.98 ± 0.48; under setting [2], 3.25 ± 0.41.

As to NLQCLYCEKTFRDKNTLKDHMRKK [ZNF277], the protein stability index stood at 3.29 ± 0.42 under setting [1] and 3.39 ± 0.66 under setting [2].

As for CGKYFQGRGLKSHAYIHSVQFSHH [USP39], the protein stability index by setting is: under setting [1], 2.37 ± 0.42; under setting [2], 2.04 ± 0.56.

For the sequence VVLGSGGVGKSALTVQFVQGIFVE [RAP1B], the protein stability index was 2.99 ± 0.05 under setting [1] and 2.96 ± 0.44 under setting [2].

For the sequence LTASRQSFRMAMGNPSEFFVDVM [DVL3], the protein stability index by setting is: (treatment: DMSO, c terminus: native) 2.41 ± 0.65; (treatment: MLN4924 1 uM, 8 h, c terminus: native) 2.54 ± 0.85.

Regarding HLIFSYSVWVLRDFPEDGLKIFTE [VPS39], the protein stability index under setting [1] amounted to 2.98 ± 0.58 and the protein stability index under setting [2] stood at 3.15 ± 0.54.

In the case of ASLQASIFSGAASLGYGTNVAATG [APBB1IP], the protein stability index runs as follows: under setting [1], 2.95 ± 0.27; under setting [2], 2.85 ± 0.33.

For the sequence LAMWTTALLHQAETLQPSVWFGGR [TMEM175], the protein stability index under setting [1] turned out to be 3 ± 0.56 and the protein stability index under setting [2] worked out at 2.82 ± 0.86.

Consider IKTAVNLPLERDAESFLLKSPIAP [CDC25B], for which the protein stability index runs as follows: under setting [1], 3.23 ± 0.24; under setting [2], 3.14 ± 0.36.

Regarding AHEVLQELRDISSMAMEYFDEKIV [FBXO28], the protein stability index is 3.14 ± 0.19 under setting [1] and 3.26 ± 0.45 under setting [2].

On to AEEAESHFSSIPDAFWWAVVSMTT [KCNA1], for which the protein stability index came to 2.11 ± 0.31 under setting [1] and 2.1 ± 0.24 under setting [2].

Consider REQKEKSPPDQPAVPHPPPSTPIK [ADD1], for which the protein stability index under setting [1] is 5.39 ± 0.12 and the protein stability index under setting [2] turned out to be 5.53 ± 0.18.

For the sequence NQLILTASADRTVIVWDGDTTRQV [WDR41], the protein stability index worked out at 2.79 ± 0.2 under setting [1] and 3.12 ± 0.2 under setting [2].

Consider GKKEIKPFKRFLRKKSKPKKCVKK [SMOC2], for which the protein stability index under setting [1] was found to be 3.1 ± 0.25.

For the sequence AGRAAAPELSYRVCVGSDVTSIHK [MYORG], the protein stability index is 3.32 ± 0.17 under setting [1] and 3.35 ± 0.24 under setting [2].

As for NNWDKWMAKKHKKIRLRCQKGIPP [TBC1D10A], the protein stability index came to 2.74 ± 0.24 under setting [1] and 3.1 ± 0.12 under setting [2].

Regarding SDVVDWLYHNVEGFTDRREARKYA [DVL3], the protein stability index is 3.23 ± 0.31 under setting [1] and 3.53 ± 0.33 under setting [2].

FRRSLHDPDGLVATYISEVHEHDG [APMAP] registered a protein stability index under setting [1] of 4.02 ± 0.28 and a protein stability index under setting [2] of 4.01 ± 0.3.

With YNLSPEADESVLWQLFGPFGAVTN [ELAVL3], the protein stability index is, setting by setting: under setting [1], 2.55 ± 0.28; under setting [2], 2.51 ± 0.091.

Take VAEITKQLPPVVPVSKPGALRRSL [TCAP]: the protein stability index by setting is: under setting [1], 5.15 ± 0.15; under setting [2], 5.2 ± 0.29.

On to GASLYAISNVCEEYIVKKLSRQEF [SLC35F2], for which the protein stability index reads like this: under setting [1], 2.3 ± 0.27; under setting [2], 2.45 ± 0.43.

Take GQFVFARDAKAAMAGRLMIRKLVA [AASDHPPT]: the protein stability index amounted to 2.08 ± 0.43 under setting [1] and 2.02 ± 0.46 under setting [2].

Turning to RLQVVKLLAKMFGAKDSELASQNK [PDS5B], the protein stability index runs as follows: under setting [1], 2.11 ± 0.34; under setting [2], 2.7 ± 0.075.

In turn, KNKMMVCQVGGIEALVRTVLRAGD [CTNNB1] displayed a protein stability index under setting [1] of 2.51 ± 0.45 and a protein stability index under setting [2] of 2.22 ± 0.21.

Consider QEANARERNRMHGLNDALDNLRKV [NEUROD6], for which the protein stability index is 4.55 ± 0.14 under setting [1] and 4.56 ± 0.23 under setting [2].

Take TNTRSDLDVFGRGDNISDVSKFLE [LUC7L3]: the protein stability index was determined as 4.67 ± 0.16 under setting [1] and 4.76 ± 0.19 under setting [2].

On to YILDNETNFVVQVSVFIGVLIDLW [CLPTM1], for which the protein stability index reads like this: under setting [1], 2.74 ± 0.77; under setting [2], 2.59 ± 0.7.

In the case of EQAPAPGEATAAPAPLCGGPSAEA [TBX6], the protein stability index is, setting by setting: under setting [1], 5.5 ± 0.31; under setting [2], 5.46 ± 0.25.

On to AVINWVKHAKKEREESLPNLLQYV [KLHL12], for which the protein stability index under setting [1] stood at 2.02 ± 0.32 and the protein stability index under setting [2] amounted to 2.49 ± 0.54.

On to KEMFTVGCCVFAFLVGLLFVQRSG [SLC6A17], for which the protein stability index was 2.38 ± 0.66 under setting [1] and 3.13 ± 0.61 under setting [2].

Turning to LLARGTMQPFNYVTLQCLAARALD [FEM1A], the protein stability index is 2.44 ± 0.16 under setting [1] and 2.22 ± 0.29 under setting [2].

In the case of LSASQKALKEKEKASWSSLSMDEK [COX4I1], the protein stability index runs as follows: under setting [1], 4.61 ± 0.28; under setting [2], 4.84 ± 0.22.

In the case of RYMLTRDYLTVKVWDLNMEARPIE [PPP2R2C], the protein stability index reads like this: under setting [1], 2.51 ± 0.3; under setting [2], 2.37 ± 0.24.

IAKHLKGRLGKQCRERWHNHLNPE [MYBL2]: the protein stability index by setting is: under setting [1], 2.25 ± 0.21; under setting [2], 2.23 ± 0.13.

AFDYIKQRRSMVSPNFGFMGQLLQ [DUSP5]: the protein stability index reads like this: under setting [1], 2.14 ± 0.25; under setting [2], 2.27 ± 0.39.

Turning to DGLVGMAIVGGMALGVAGLAGLIG [FIS1], the protein stability index under setting [1] stood at 2.33 ± 0.6 and the protein stability index under setting [2] amounted to 2.09 ± 0.5.

As to TSEKLGEWNEKVTQSDLYKKTQET [TPD52L2], the protein stability index is, setting by setting: under setting [1], 5.13 ± 0.28; under setting [2], 5.1 ± 0.063.

For AKPRATWTLKLDGNLQLDCLAQGW [RTP4], the protein stability index turned out to be 2.17 ± 0.24 under setting [1] and 2.33 ± 0.57 under setting [2].

Consider ALSSFREESRFCDAHLVLDGEEIP [GAN], for which the protein stability index is, setting by setting: under setting [1], 4.51 ± 0.18; under setting [2], 4.59 ± 0.14.

As to HTKRLYRAVVEAVHRLDLILCNKT [SMG5], the protein stability index is, setting by setting: under setting [1], 2.77 ± 0.36; under setting [2], 2.82 ± 0.65.

As for GKSVSSSSSVETGPSVSEPPGLPR [SPATS1], the protein stability index is, setting by setting: under setting [1], 5.08 ± 0.18; under setting [2], 5.11 ± 0.067.

As to DVTGSVKSERRNLLEDDSDEEEDF [VAMP4], the protein stability index is, setting by setting: under setting [1], 5.57 ± 0.14; under setting [2], 5.66 ± 0.25.

As to DEEEDFFLRGPSGPRFGPRNDKIK [VAMP4], the protein stability index by setting is: under setting [1], 4.53 ± 0.26; under setting [2], 4.62 ± 0.26.

Consider AIQAFLDKCSAPKIWRTPNGKTIE [IQUB], for which the protein stability index amounted to 2.36 ± 0.48 under setting [1] and 2.27 ± 0.22 under setting [2].

On to TGIEGNWGRLLEQVGTMALWASQR [ZBED2], for which the protein stability index runs as follows: under setting [1], 1.98 ± 0.57; under setting [2], 2.48 ± 0.49.
